Where two headings read alike, the source gives them in different places.
Tests used:
[1] = target: T1, human Tissue Factor on human TF-positive cells (human, UniProt P13726 33-295); assay: flow cytometry, antibody titration on A431 cells (human TF), 4-parameter fit of MFI
T1 construct: also called hTF; CD142

Relipidated TF [2] = target: T2, Relipidated TF (UniProt P13726 33-295, limits assumed); assay: cell-based or functional assay
[3] = target: T3, cynomolgus monkey TF ECD-His6 (cynomolgus monkey (Macaca fascicularis)); assay: SPR (Biacore), TF-His over coupled antibody
T3 construct: Expi293-derived; also called TF-His; cTF
T3 chain: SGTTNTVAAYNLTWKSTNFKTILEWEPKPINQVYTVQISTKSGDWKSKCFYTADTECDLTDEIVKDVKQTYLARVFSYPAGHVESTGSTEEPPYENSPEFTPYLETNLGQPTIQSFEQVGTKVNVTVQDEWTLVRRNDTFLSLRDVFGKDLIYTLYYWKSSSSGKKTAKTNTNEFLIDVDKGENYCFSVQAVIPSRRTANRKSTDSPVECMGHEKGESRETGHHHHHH

human TF ECD-His6 [4] = target: T4, human TF ECD-His6 (human, UniProt P13726 33-251); assay: SPR (Biacore), TF-His over coupled antibody
T4 construct: Expi293-derived; Biacore used TF-His; also called TF-His; hTF

[5] = target: T1, human Tissue Factor on human …; assay: competition flow cytometry on MDA-MB-231 cells: antibody titration first, then 20 nM FVII-Fc-Alexa488 as the blocked ligand
[6] = target: T1, human Tissue Factor on human …; assay: flow cytometry, antibody titration on HCT-116 cells (endogenous human TF), 4-parameter fit of MFI
[7] = target: T5, full-length mouse TF with a C-terminal FLAG tag on Flp-In-CHO cells (mouse, UniProt P20352 29-294); assay: flow cytometry on CHO cells expressing mouse TF, MFI at 250 nM antibody
T5 construct: also called CHO-mTF; mouse TF-positive CHO cells

[8] = target: T1, human Tissue Factor on human …; assay: competition flow cytometry on MDA-MB-231 cells: unlabeled antibody titration first, then 20 nM 39A-Alexa488 as the competitor
[9] = target: T5, full-length mouse TF with a C-terminal …; assay: flow cytometry, antibody titration on CHO cells expressing mouse TF
[10] = target: T3, cynomolgus monkey TF ECD-His6; assay: BLI (ForteBio Octet)
human TF ECD-His6 [11] = target: T4, human TF ECD-His6; assay: BLI (ForteBio Octet)
Relipidated TF [12] = target: T2, Relipidated TF; assay: cell-based or functional assay; remark: listed apart in the source
[13] = target: T6, rTF (rat TF) construct on HEK293 cells (rat, UniProt P42533 29-252); assay: live cell staining, HEK293 cells
T6 construct: not shown: transmembrane/cytoplasmic anchor of the cell-surface construct

[14] = target: T5, full-length mouse TF with a C-terminal …; assay: flow cytometry, antibody titration on CHO cells expressing mouse TF, 4-parameter fit of MFI
Protocol: (§1) After 2 washes, dead cells were labeled with TO-PRO-3 Iodide (ThermoFisher Scientific) and samples were analyzed on a CytoFLEX flow cytometer (Beckman Coulter, Brea, CA, USA) or Novocyte flow cytometer (ACEA Biosciences, San Diego, CA, USA). The median fluorescence intensities (MFIs) at each dilution were plotted and cell EC₅₀'s were derived using a 4-parameter binding model in Prism (GraphPad, La Jolla, CA, USA).

mouse TF ECD-His6 = target: T7, mouse TF ECD-His6 (mouse, UniProt P20352 29-251); assay: BLI (ForteBio Octet)
T7 construct: Expi293-derived; also called TF-His; mTF

[15] = target: T1, human Tissue Factor on human …; assay: flow cytometry, antibody titration on HCT-116 cells (endogenous human TF), 4-parameter fit of MFI; remark: listed apart in the source
Protocol: as §1

[16] = target: T5, full-length mouse TF with a C-terminal …; assay: flow cytometry on CHO cells expressing mouse TF, MFI at 250 nM antibody; remark: listed apart in the source
Protocol: as §1

[17] = target: T5, full-length mouse TF with a C-terminal …; assay: flow cytometry, antibody titration on CHO cells expressing mouse TF, 4-parameter fit of MFI; remark: listed apart in the source
Protocol: as §1

T6 sequence (P42533 29-252 limits assumed): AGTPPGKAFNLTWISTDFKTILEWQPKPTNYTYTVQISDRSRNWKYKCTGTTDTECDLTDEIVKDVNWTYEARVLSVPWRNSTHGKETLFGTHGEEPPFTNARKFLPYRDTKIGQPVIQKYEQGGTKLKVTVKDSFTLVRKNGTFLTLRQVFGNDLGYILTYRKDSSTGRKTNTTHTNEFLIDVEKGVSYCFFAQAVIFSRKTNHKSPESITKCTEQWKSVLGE

B1: 1F (antibody, human IgG1, V domains shown)
VH: EVQLLESGGGLVQPGGSLRLSCAASGFTFSDYAMGWVRQAPGKGLEWVSTISGSGGLTYYADSVKGRFTISRDNSKNTLYLQMNSLRAEDTAVYYCAKAPYGYYMDVWGKGTTVTVSS
VL: not shown
notes: Human IgG1; also called antibody designated 1F
[1]
  EC50: 0.49 nM
Relipidated TF [2]
  % ETP at 10 nM Ab (TGA with 10 min antibody pre-incubation): 31%
  % Peak IIa at 10 nM Ab (TGA with 10 min antibody pre-incubation): 10%
  % Peak IIa at 50 nM Ab (TGA with 10 min antibody pre-incubation): 7%
  % Peak IIa at 100 nM Ab (TGA with 10 min antibody pre-incubation): 7%
  ETP at 10 nM Ab (TGA with 10 min antibody pre-incubation): 540 nM·min
  Lag Time at 10 nM Ab (TGA with 10 min antibody pre-incubation): 18.8 min
  Lag Time at 50 nM Ab (TGA with 10 min antibody pre-incubation): 27.6 min
  Lag Time at 100 nM Ab (TGA with 10 min antibody pre-incubation): 30.3 min
  Peak IIa at 10 nM Ab (TGA with 10 min antibody pre-incubation): 27 nM
  Peak IIa at 50 nM Ab (TGA with 10 min antibody pre-incubation): 20 nM
  Peak IIa at 100 nM Ab (TGA with 10 min antibody pre-incubation): 17 nM
  ttPeak at 10 nM Ab (TGA with 10 min antibody pre-incubation): 28.6 min
  ttPeak at 50 nM Ab (TGA with 10 min antibody pre-incubation): 38.9 min
  ttPeak at 100 nM Ab (TGA with 10 min antibody pre-incubation): 42 min
[3]
  Kd: 0.26 nM
Human TF ECD-His6 [4]
  Kd: 0.31 nM
[5]
  IC50 (read off the curve): ~1 nM
[6]
  EC50: 0.05 nM
[7]
  MFI at 250 nM: 4200
[8]
  IC50: 0.65 nM
[9]
  binding result: no binding (tested: 250 nM)
[10]
  Kd: 1.43 nM
Human TF ECD-His6 [11]
  Kd: 1.28 nM
Relipidated TF [12]
  % ETP at 10 nM Ab (TGA without antibody pre-incubation): 58%
  % Peak IIa at 10 nM Ab (TGA without antibody pre-incubation): 21%
  % Peak IIa at 50 nM Ab (TGA without antibody pre-incubation): 8%
  % Peak IIa at 100 nM Ab (TGA without antibody pre-incubation): 7%
  ETP at 10 nM Ab (TGA without antibody pre-incubation): 1400 nM·min
  Lag Time at 10 nM Ab (TGA without antibody pre-incubation): 12.1 min
  Lag Time at 50 nM Ab (TGA without antibody pre-incubation): 27.2 min
  Lag Time at 100 nM Ab (TGA without antibody pre-incubation): 25.9 min
  Peak IIa at 10 nM Ab (TGA without antibody pre-incubation): 83 nM
  Peak IIa at 50 nM Ab (TGA without antibody pre-incubation): 32 nM
  Peak IIa at 100 nM Ab (TGA without antibody pre-incubation): 29 nM
  ttPeak at 10 nM Ab (TGA without antibody pre-incubation): 19.8 min
  ttPeak at 50 nM Ab (TGA without antibody pre-incubation): 36.8 min
  ttPeak at 100 nM Ab (TGA without antibody pre-incubation): 37.9 min
[13]
  binding result: no binding

B2: 25A5 (antibody, human IgG1, V domains shown)
VH: QVQLVQSGAEVKKPGASVKVSCKASGYTFDVYGISWVRQAPGQGLEWMGWIAPYSGNTNYAQKLQGRVTMTTDTSTSTAYMELRSLRSDDTAVYYCARDAGTYSPFGYGMDVWGQGTTVTVSS
VL: DIQMTQSPSTLSASVGDRVTITCRASESISNWLAWYQQKPGKAPKLLIYKAYSLEYGVPSRFSGSGSGTEFTLTISSLQPDDFATYYCQQFQKLPPFTFGGGTKVEIK
notes: Human IgG1; also called antibody designated 25A5
[14]
  EC50: 11 nM
[3]
  Kd: 0.04 nM
Human TF ECD-His6 [4]
  Kd: 0.08 nM
[6]
  EC50: 0.088 nM
[7]
  MFI at 250 nM: 8e+06
Mouse TF ECD-His6
  Kd: 188 nM
Human TF ECD-His6 [11]
  Kd: 0.64 nM

B3: 25G (antibody, human IgG1, V domains shown)
VH: QVQLVQSGAEVKKPGASVKVSCKASGYTFRSYGISWVRQAPGQGLEWMGWVAPYNGNTNYAQKLQGRVTMTTDTSTSTAYMELRSLRSDDTAVYYCARDAGTYSPYGYGMDVWGQGTTVTVSS
VL: DIQMTQSPSTLSASVGDRVTITCRASQSISSWLAWYQQKPGKAPKLLIYKASSLESGVPSRFSGSGSGTEFTLTISSLQPDDFATYYCQQFQSLPPFTFGGGTKVEIK
notes: Human IgG1; also called antibody designated 25G
[14]
  EC50: 3.9 nM
[3]
  Kd: 18 nM
Human TF ECD-His6 [4]
  Kd: 23 nM
[6]
  EC50: 0.134 nM
[7]
  MFI at 250 nM: 1.6e+07
Mouse TF ECD-His6
  Kd: 114 nM
[10]
  Kd: 17.5 nM
Human TF ECD-His6 [11]
  Kd: 21.9 nM

B4: 43B (antibody, human IgG1, V domains shown)
VH: QVQLQESGPGLVKPSQTLSLTCTVSGGSISSGQYWSWIRQHPGKGLEWIGEIYYSGSTRYNPSLKSRVTISVDTSKNQFSLKLSSVTAADTAVYYCARDAPYYYGGGYYYYMDVWGKGTTVTVSS
VL: EIVLTQSPGTLSLSPGERATLSCRASQSVSSSYLAWYQQKPGQAPRLLIYGASSRATGIPDRFSGSGSGTDFTLTISRLEPEDFAVYYCQQVGVVPYTFGGGTKVEIK
notes: Human IgG1; also called antibody designated 43B
[3]
  Kd: 5.64 nM
Human TF ECD-His6 [4]
  Kd: 1.75 nM
Mouse TF ECD-His6
  Kd: 161 nM
[10]
  Kd: 3.4 nM
Human TF ECD-His6 [11]
  Kd: 2.4 nM
[15]
  EC50: 0.559 nM

B5: 43D (antibody, human IgG1, V domains shown)
VH: QVQLQQWGAGLLKPSETLSLTCAVYGGSLSGYYWSWIRQPPGKGLEWIGEIGASGSTRYNPSLKSRVTISVDTSKNQFSLKLSSVTAADTAVYYCARDTPYYYEGGYYYYMDVWGKGTTVTVSS
VL: EIVLTQSPGTLSLSPGERATLSCRASQSVSSSYLAWYQQKPGQAPRLLIYGASSRATGIPDRFSGSGSGTDFTLTISRLEPEDFAVYYCQQVGVVPYTFGGGTKVEIK
notes: Human IgG1; also called antibody designated 43D
[16]
  MFI at 250 nM: 1.3e+07
[17]
  EC50: 2.9 nM
[3]
  Kd: 5.66 nM
Human TF ECD-His6 [4]
  Kd: 2.09 nM
Mouse TF ECD-His6
  Kd: 281 nM
[10]
  Kd: 4.12 nM
Human TF ECD-His6 [11]
  Kd: 3.84 nM
[15]
  EC50: 0.147 nM

B6: 43B1 (antibody, human IgG1, V domains shown)
VH: QVQLQESGPGLVKPSQTLSLTCTVSGGSISSGQYWSWIRQHPGKGLEWIGEIYYSGSTRYNPSLKSRVTISVDTSKNQFSLKLSSVTAADTAVYYCARDAPYYYGGGYYYYMDVWGKGTTVTVSS
VL: EIVLTQSPGTLSLSPGERATLSCRASESVDSSYLAWYQQKPGQAPRLLIYGASTRQTGIPDRFSGSGSGTDFTLTISRLEPEDFAVYYCQQAGVVPYTFGGGTKVEIK
notes: Human IgG1; also called antibody designated 43B1
[16]
  MFI at 250 nM: 5.3e+06
[17]
  EC50: 255 nM
Mouse TF ECD-His6
  Kd: 72.1 nM

B7: 43B7 (antibody, human IgG1, V domains shown)
VH: QVQLQESGPGLVKPSQTLSLTCTVSGGSISSGQYWSWIRQHPGKGLEWIGEIYYSGSTRYNPSLKSRVTISVDTSKNQFSLKLSSVTAADTAVYYCARDAPYYYGGGYYYYMDVWGKGTTVTVSS
VL: EIVLTQSPGTLSLSPGERATLSCRASESVDSSYLAWYQQKPGQAPRLLIYGADSRATGIPDRFSGSGSGTDFTLTISRLEPEDFAVYYCQQDGVVPYTFGGGTKVEIK
notes: Human IgG1; also called antibody designated 43B7
[16]
  MFI at 250 nM: 800000
[3]
  Kd: 0.24 nM
Human TF ECD-His6 [4]
  Kd: 0.14 nM
Mouse TF ECD-His6
  Kd: 360 nM
[10]
  Kd: 0.94 nM
Human TF ECD-His6 [11]
  Kd: 0.86 nM
[15]
  EC50: 0.255 nM

— patent publication US20250361322A1 (ICONIC THERAPEUTICS, published 2025)
